What all share (details): chains Vgamma:Vdelta
The target of test [1] is peptide on (human). Put plainly: IFNγ ELISA, CD4+ transduced T-cells against Daudi, pamidronate titration; full-length, on cells. On the set-up: unit not given here. On the technique in general: An ELISA detects its analyte on a solid surface through an enzyme-linked reagent.
In test [2] the target is peptide on (human). In words: IFNγ ELISA, CD4+ transduced T-cells against Daudi, pamidronate titration; against γ9-G115wt/δ2-G115wt (max. 800 pg/ml); full-length, on cells.
Test [3] concerns the target peptide on (human). In words: IFNγ ELISA, CD4+ transduced T-cells against Daudi, pamidronate titration; against γ9-G115wt/δ2-G115wt (max. 800 pg/ml); the clone number is missing in the printed name; full-length, on cells.

B1: γ9-cl3wt/δ2-cl3wt (protein)
chain 1: AGHLEQPQISSTKTLSKTARLECVVSGITISATSVYWYRERPGEVIQFLVSISYDGTVRKESGIPSGKFEVDRIPETSTSTLTIHNVEKQDIATYYCALWEEELGKKIKVFGPGTKLIIT
chain 2: AIELVPEHQTVPVSIGVPATLRCSMKGEAIGNYYINWYRKTQGNTMTFIYREKDIYGPGFKDNFQGDIDIAKNLAVLKILAPSERDEGSYYCACDLLGYTDKLIFGKGTRVTVEP
Consider B1, for which the EC50 of pamidronate in the test with peptide on (human) [1] was determined as 30. Besides, the maximal IFNγ secretion with peptide on (human) [2] was 600 µg/mL.

B2: γ9-cl3wt/δ2-G115wt (protein)
chain 1: AGHLEQPQISSTKTLSKTARLECVVSGITISATSVYWYRERPGEVIQFLVSISYDGTVRKESGIPSGKFEVDRIPETSTSTLTIHNVEKQDIATYYCALWEEELGKKIKVFGPGTKLIIT
chain 2: AIELVPEHQTVPVSIGVPATLRCSMKGEAIGNYYINWYRKTQGNTMTFIYREKDIYGPGFKDNFQGDIDIAKNLAVLKILAPSERDEGSYYCACDTLGMGGEYTDKLIFGKGTRVTVEP
In the test with peptide on (human) [3], B2 registered a maximal IFNγ secretion of 100 pg/mL.

Source of the values: patent publication US20150050670A1.
